Measurements as given in publication PMC3294036 (Nature structural & molecular biology, 2012).

Assays:
[1] = biological target: T1, calcineurin (CN A–CN B heterodimer), recombinant (UniProt Q08209;P63098)
[2] = biological target: rhodamine-CN (calcineurin labelled with tetramethylrhodamine acceptor) (UniProt Q08209;P63098, tetramethylrhodamine label on CN (chain and site not stated)); experiment: FRET or BRET
[3] = biological target: T1, calcineurin (CN A–CN B heterodimer), …; experiment: SEC-MALS

T1 sequence (P63098 16-170, one chain of several): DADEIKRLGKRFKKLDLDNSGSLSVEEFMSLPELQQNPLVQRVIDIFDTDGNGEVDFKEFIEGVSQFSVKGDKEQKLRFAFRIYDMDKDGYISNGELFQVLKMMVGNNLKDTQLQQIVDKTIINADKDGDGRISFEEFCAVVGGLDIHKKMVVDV

Binder | Ki [1] [µM] | further results
GST-tagged wildtype AKAP79(333–408) (PIAIIIT) (domain or fragment) KRMEPIAIIITDTEISEFDVTKSKNVPKQFLISAENEQVGVFANDNGFEDRTSEQYETLLIETASSLVKNAIQLSI | 0.36 | –
ATTO425-AKAP79(333–408) I338P variant (PPAIIIT) (domain or fragment, ATTO 425 donor label (site not stated)) KRMEPPAIIITDTEISEFDVTKSKNVPKQFLISAENEQVGVFANDNGFEDRTSEQYETLLIETASSLVKNAIQLSI | – | koff [2]: 4.24 s⁻¹
AKAP79(333–408) (domain or fragment) KRMEPIAIIITDTEISEFDVTKSKNVPKQFLISAENEQVGVFANDNGFEDRTSEQYETLLIETASSLVKNAIQLSI | – | stoichiometry N [3]: 1
KRMEPAAIIITDTEIS (domain or fragment) [GST-AKAP79(333–348) I338A (PAAIIIT)] | 47 | –

Further binders by falling Ki [1], results first:

Ki [1] [µM] | Binder | further results
39 | GST-AKAP79(333–408) T343A (PIAIIIA) (domain or fragment) KRMEPIAIIIADTEISEFDVTKSKNVPKQFLISAENEQVGVFANDNGFEDRTSEQYETLLIETASSLVKNAIQLSI | –
12 | GST-AKAP79(333–408) I338P T343A (PPAIIIA) (domain or fragment) KRMEPPAIIIADTEISEFDVTKSKNVPKQFLISAENEQVGVFANDNGFEDRTSEQYETLLIETASSLVKNAIQLSI | –
3.7 | KRMEAIAIIITDTEIS (domain or fragment) [GST-AKAP79(333–348) P337A (AIAIIIT)] | –
0.08 | GST-AKAP79(333–408) I338P (PPAIIIT) (domain or fragment) KRMEPPAIIITDTEISEFDVTKSKNVPKQFLISAENEQVGVFANDNGFEDRTSEQYETLLIETASSLVKNAIQLSI | –
